Data published in article PMC4712191.

T1: BmExd1 full-length (UniProt H9IUR0 1-315)
T1 sequence: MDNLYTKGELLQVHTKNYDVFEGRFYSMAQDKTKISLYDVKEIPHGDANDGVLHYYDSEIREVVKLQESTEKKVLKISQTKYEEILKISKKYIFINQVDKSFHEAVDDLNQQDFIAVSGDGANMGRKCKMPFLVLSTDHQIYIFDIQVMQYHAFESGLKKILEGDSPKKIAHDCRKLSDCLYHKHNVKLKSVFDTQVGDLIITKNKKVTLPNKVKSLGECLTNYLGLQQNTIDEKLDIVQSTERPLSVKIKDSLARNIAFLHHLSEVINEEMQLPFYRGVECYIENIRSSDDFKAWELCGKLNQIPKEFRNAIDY


Assays:
[1] = target: recombinant full-length BmExd1 (Bombyx mori); assay: AUC
[2] = target: T1, BmExd1 full-length; assay: ITC

stoichiometry N [1]	Molecule	Kd [2] [µM]
2	recombinant full-length BmExd1 (natural protein)	
	GGGGUAUUCUUUAAUUAUUUC (ssRNA) [ITC RNA (21 nt)]	27
